One block for each substance: values may come before it.
Columns and labels:
[1] = target: rHuman EGF R/Fc Chimera, CF (R&D Systems Cat#344-ER) (human) (UniProt P00533); assay: MSD Multispot ECL, antigen spotted on plate, Fab 230 nM; blank spot 1656
[2] = target: rHuman EGF R/Fc Chimera, CF (R&D Systems Cat#344-ER) (human) (UniProt P00533); assay: MSD Multispot ECL, antigen spotted on plate, Fab 14.375 nM; blank spot 738
[3] = target: rHuman EGF R/Fc Chimera, CF (R&D Systems Cat#344-ER) (human) (UniProt P00533); assay: MSD Multispot ECL, antigen spotted on plate, Fab 920 nM; blank spot 4082
[4] = target: rHuman EGF R/Fc Chimera, CF (R&D Systems Cat#344-ER) (human) (UniProt P00533); assay: MSD Multispot ECL, antigen spotted on plate, Fab 57.5 nM; blank spot 954
[5] = target: rHuman ErbB2/Fc Chimera, CF (R&D Systems Cat#1129-ER) (human) (UniProt P04626); assay: Multispot ECL (MSD), antigen spotted on plate, Fab 4.375 nM; blank spot 305
[6] = target: rHuman Notch-1/Fc Chimera, CF (R&D Systems Cat#3647-TK) (human) (UniProt P46531); assay: as above
[7] = target: rHuman P-Cadherin/Fc Chimera, CF (R&D Systems Cat#861-PC) (human) (UniProt P22223); assay: as above
[8] = target: rHuman IGF-1 sR, (IGF-1 sR), CF (R&D Systems Cat#391-GR) (human) (UniProt P08069); assay: as above
[9] = target: rHuman HGF R/c-MET/Fc Chimera, CF (R&D Systems Cat#358-MT/CF) (human) (UniProt P08581); assay: as above
Sequence of rHuman HGF R/c-MET/Fc Chimera, CF (R&D Systems Cat#358-MT/CF) (human) (P08581 25-932, change not shown): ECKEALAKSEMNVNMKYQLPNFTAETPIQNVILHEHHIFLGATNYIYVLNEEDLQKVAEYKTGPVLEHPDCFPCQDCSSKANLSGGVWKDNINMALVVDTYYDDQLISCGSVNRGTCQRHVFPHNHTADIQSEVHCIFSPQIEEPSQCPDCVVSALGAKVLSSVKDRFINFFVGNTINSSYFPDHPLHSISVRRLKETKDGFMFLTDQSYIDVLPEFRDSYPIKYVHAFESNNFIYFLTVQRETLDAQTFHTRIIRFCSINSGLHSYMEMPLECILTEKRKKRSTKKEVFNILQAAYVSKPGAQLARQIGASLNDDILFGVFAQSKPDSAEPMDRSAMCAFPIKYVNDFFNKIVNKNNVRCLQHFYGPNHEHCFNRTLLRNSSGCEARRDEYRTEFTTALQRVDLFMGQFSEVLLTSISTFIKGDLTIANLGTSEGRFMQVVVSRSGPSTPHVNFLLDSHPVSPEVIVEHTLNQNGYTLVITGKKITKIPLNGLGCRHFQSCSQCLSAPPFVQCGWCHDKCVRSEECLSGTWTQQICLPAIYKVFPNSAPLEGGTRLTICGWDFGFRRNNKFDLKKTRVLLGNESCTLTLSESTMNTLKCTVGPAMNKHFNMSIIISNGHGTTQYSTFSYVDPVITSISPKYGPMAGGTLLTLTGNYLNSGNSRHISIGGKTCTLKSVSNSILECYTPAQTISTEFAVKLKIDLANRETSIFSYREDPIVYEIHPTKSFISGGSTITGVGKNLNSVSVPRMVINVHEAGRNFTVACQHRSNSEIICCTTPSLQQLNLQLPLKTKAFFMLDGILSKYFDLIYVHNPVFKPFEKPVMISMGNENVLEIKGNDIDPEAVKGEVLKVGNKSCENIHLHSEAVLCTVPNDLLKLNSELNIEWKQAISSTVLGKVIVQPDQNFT

[10] = target: rHuman CD44/Fc Chimera, CF (R&D Systems Cat#3660-CD) (human) (UniProt P16070); assay: as above
[11] = target: rHuman ErbB2/Fc Chimera, CF (R&D Systems Cat#1129-ER) (human) (UniProt P04626); assay: Multispot ECL (MSD), antigen spotted on plate, Fab 280 nM; blank spot 1691
[12] = target: rHuman Notch-1/Fc Chimera, CF (R&D Systems Cat#3647-TK) (human) (UniProt P46531); assay: as above
[13] = target: rHuman P-Cadherin/Fc Chimera, CF (R&D Systems Cat#861-PC) (human) (UniProt P22223); assay: as above
[14] = target: rHuman IGF-1 sR, (IGF-1 sR), CF (R&D Systems Cat#391-GR) (human) (UniProt P08069); assay: as above
[15] = target: rHuman HGF R/c-MET/Fc Chimera, CF (R&D Systems Cat#358-MT/CF) (human) (UniProt P08581); assay: as above
[16] = target: rHuman CD44/Fc Chimera, CF (R&D Systems Cat#3660-CD) (human) (UniProt P16070); assay: as above
[17] = target: rHuman ErbB2/Fc Chimera, CF (R&D Systems Cat#1129-ER) (human) (UniProt P04626); assay: Multispot ECL (MSD), antigen spotted on plate, Fab 70 nM; blank spot 635
[18] = target: rHuman Notch-1/Fc Chimera, CF (R&D Systems Cat#3647-TK) (human) (UniProt P46531); assay: as above
[19] = target: rHuman P-Cadherin/Fc Chimera, CF (R&D Systems Cat#861-PC) (human) (UniProt P22223); assay: as above
[20] = target: rHuman IGF-1 sR, (IGF-1 sR), CF (R&D Systems Cat#391-GR) (human) (UniProt P08069); assay: as above
[21] = target: rHuman HGF R/c-MET/Fc Chimera, CF (R&D Systems Cat#358-MT/CF) (human) (UniProt P08581); assay: as above
[22] = target: rHuman CD44/Fc Chimera, CF (R&D Systems Cat#3660-CD) (human) (UniProt P16070); assay: as above
[23] = target: rHuman ErbB2/Fc Chimera, CF (R&D Systems Cat#1129-ER) (human) (UniProt P04626); assay: Multispot ECL (MSD), antigen spotted on plate, Fab 17.5 nM; blank spot 304
[24] = target: rHuman Notch-1/Fc Chimera, CF (R&D Systems Cat#3647-TK) (human) (UniProt P46531); assay: as above
[25] = target: rHuman P-Cadherin/Fc Chimera, CF (R&D Systems Cat#861-PC) (human) (UniProt P22223); assay: as above
[26] = target: rHuman IGF-1 sR, (IGF-1 sR), CF (R&D Systems Cat#391-GR) (human) (UniProt P08069); assay: as above
[27] = target: rHuman HGF R/c-MET/Fc Chimera, CF (R&D Systems Cat#358-MT/CF) (human) (UniProt P08581); assay: as above
[28] = target: rHuman CD44/Fc Chimera, CF (R&D Systems Cat#3660-CD) (human) (UniProt P16070); assay: as above

ECL signal [1]: 5720
ECL signal [2]: 2670
ECL signal [3]: 13400
ECL signal [4]: 3860
Substance: Fab VH1-46_IGHD3-10*01_IGHJ4*01 & L12_IGKJ1*01

ECL signal [5]: 384
ECL signal [6]: 480
ECL signal [7]: 469
ECL signal [8]: 369
ECL signal [9]: 193
ECL signal [10]: 424
ECL signal [11]: 3950
ECL signal [12]: 4380
ECL signal [13]: 5400
ECL signal [14]: 3530
ECL signal [15]: 3560
ECL signal [16]: 4070
ECL signal [17]: 1360
ECL signal [18]: 1490
ECL signal [19]: 1820
ECL signal [20]: 1320
ECL signal [21]: 1290
ECL signal [22]: 1370
ECL signal [23]: 541
ECL signal [24]: 680
ECL signal [25]: 949
ECL signal [26]: 626
ECL signal [27]: 565
ECL signal [28]: 664
Substance: Fab VH1-46_IGHD2-15*01_IGHJ2*01 & L12_IGKJ1*01

From patent US20120316071A1
